Source: paper PMC8832513
pKd: −log10 of the molar value.

Biological target: RXFP1 construct pVL-11 (FLAG-eGFP-M82-S707-Avi) (human) (UniProt Q9HBX9)
Assay: SPR; receptor constructs captured via biotinylated Avi-tag on an SA chip (3000-5000 RU), Biacore T200, 20°C; running buffer 20 mM HEPES pH 7.5, 150 mM NaCl, 0.01% BSA, 0.1% DDM, 0.01% CHS; relaxin injected at 0.41-100 nM; kinetic fits; triplicates

Chain of UniProt Q9HBX9 (Q9HBX9 82-707): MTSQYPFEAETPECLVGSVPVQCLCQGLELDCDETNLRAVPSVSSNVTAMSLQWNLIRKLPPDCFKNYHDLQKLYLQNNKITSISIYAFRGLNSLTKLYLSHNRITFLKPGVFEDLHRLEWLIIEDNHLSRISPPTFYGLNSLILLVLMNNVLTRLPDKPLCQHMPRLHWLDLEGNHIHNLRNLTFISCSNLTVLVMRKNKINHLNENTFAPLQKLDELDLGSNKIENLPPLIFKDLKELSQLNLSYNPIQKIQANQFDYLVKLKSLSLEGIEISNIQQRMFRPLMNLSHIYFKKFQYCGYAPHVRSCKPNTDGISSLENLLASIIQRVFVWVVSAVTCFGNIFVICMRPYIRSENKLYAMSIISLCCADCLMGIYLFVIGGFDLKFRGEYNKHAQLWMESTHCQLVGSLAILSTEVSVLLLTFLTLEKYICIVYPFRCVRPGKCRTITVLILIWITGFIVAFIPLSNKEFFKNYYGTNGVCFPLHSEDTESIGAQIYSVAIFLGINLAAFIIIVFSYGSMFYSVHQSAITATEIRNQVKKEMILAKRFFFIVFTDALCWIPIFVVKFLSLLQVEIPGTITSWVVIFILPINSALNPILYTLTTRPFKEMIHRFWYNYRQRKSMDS

## Relaxin H2 (human) (ligand)
  pKd: 7.70
